Experimental findings from US6900299 (UNIVERSITY OF SOUTH FLORIDA, dated 2005) are described below.

The target of assay [1] is human ICAM-1 on cells (HEp-2, NHBE, A549, U937) (human) (UniProt P05362). Put plainly: cell-based or functional assay.
The target in assay [2] is T1, human ICAM-1 fused to the VP16 activation domain (pVP16 vector) (herpes simplex virus; human, UniProt P05362 28-532).
T1 construct: Order of the parts follows the usual pVP16 layout; also called ICAM-1 (two-hybrid construct)
Put plainly: mammalian two-hybrid assay in NIH3T3 cells, CAT reporter (CAT activity similar to the basal level).

Sequence of human ICAM-1 on cells (HEp-2, NHBE, A549, U937) (human) (P05362 28-532): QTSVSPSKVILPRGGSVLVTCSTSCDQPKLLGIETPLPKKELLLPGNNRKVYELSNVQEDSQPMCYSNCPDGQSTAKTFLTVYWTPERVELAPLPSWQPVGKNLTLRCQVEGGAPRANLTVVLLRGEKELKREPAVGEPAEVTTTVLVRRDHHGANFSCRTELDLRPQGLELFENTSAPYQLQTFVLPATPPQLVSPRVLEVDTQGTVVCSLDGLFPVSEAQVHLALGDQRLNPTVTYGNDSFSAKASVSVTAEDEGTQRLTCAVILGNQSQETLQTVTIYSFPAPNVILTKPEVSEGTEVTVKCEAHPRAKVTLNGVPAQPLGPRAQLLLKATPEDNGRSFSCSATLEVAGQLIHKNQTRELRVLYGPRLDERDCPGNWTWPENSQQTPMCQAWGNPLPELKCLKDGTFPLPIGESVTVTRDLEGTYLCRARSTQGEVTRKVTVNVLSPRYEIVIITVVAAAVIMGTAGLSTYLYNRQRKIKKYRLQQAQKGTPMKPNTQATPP
T1 sequence (P05362 28-532 limits assumed): as the sequence (P05362 28-532) above

In assay [1], “mouse anti-human ICAM-1 mAb (BBA 4) (R & D Systems) (antibody)” registered an inhibition of RSV N gene mRNA in HEp-2 cells (RT-PCR) at 400 µg of mAb/ml of 70%; an inhibition of RSV infection of HEp-2 cells (immunofluorescence, percent infected cells) at 400 µg/ml of 96%; a reduction in RSV infection of A549 cells at 400 µg of mAb/ml of 67%; a reduction in RSV infection of NHBE cells at 400 µg of mAb/ml of 54%.

B1: RSV-G fused to the GAL4 DNA-binding domain (pM vector) (other)
chain: MKLLSSIEQACDICRLKKLKCSKEKPKCAKCLKNNWECRYSPKTKRSPLTRAHLTEVESRLERLEQLFLLIFPREDLDMILKMDSLQDIKALLTGLFVQDNVNKDAVTDRLASVETDMPLTLRQHRISATSSSEESSNKGQRQLTVSMSKNKDQRTAKTLERTWDTLNHLLFISSCLYKLNLKSVAQITLSILAMIISTSLIIAAIIFIASANHKVTPTTAIIQDATSQIKNTTPTYLTQNPQLGISPSNPSEITSQITTILASTTPGVKSTLQSTTVKTKNTTTTQTQPSKPTTKQRQNKPPSKPNNDFHFEVFNFVPCSICSNNPTCWAICKRIPNKKPGKKTTTKPTKKPTLKTTKKDPKPQTTKSKEVPTTKPTEEPTINTTKTNIITTLLTSNTTGNPELTSQMETFHSTSSEGNPSPSQVSTTSEYPSQPSSPPNTPRQ
notes: also called cDNA construct expressing G; RSV-G gene product
For the molecule B1, in assay [2], the binding result is “no binding”.
